Columns and labels:
[1] = molecular target: soluble extracellular region of cynomolgus monkey CD38 antigen fused to a 6-His-tag (cynomolgus monkey, UniProt Q5VAN0 45-301); assay: SPR
[2] = molecular target: T1, soluble extracellular region of human CD38 fused to a 6-His-tag (human, UniProt P28907 43-300); assay: SPR, antibody captured on protein G chip, equilibrium response vs concentration
T1 construct: Extracellular region = UniProt P28907 residues 43-300, with a 6-His-tag at the C-terminal end; also called human CD38 protein; human CD38 antigen

[3] = molecular target: T2, human OX40 on cells (human, UniProt P43489 29-277); assay: cell-based or functional assay
T2 sequence (looked up): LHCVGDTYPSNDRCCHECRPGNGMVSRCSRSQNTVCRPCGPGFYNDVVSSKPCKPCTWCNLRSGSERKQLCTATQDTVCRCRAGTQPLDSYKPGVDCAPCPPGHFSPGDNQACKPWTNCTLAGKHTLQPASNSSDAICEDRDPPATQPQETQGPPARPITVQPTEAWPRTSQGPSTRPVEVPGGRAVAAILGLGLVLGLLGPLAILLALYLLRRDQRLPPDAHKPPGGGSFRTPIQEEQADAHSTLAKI

[4] = molecular target: T3, human CD3 gamma-epsilon-Fc fusion protein (human); assay: SPR using the human CD3gamma-epsilon-Fc construct
T3 construct: also called CD3 gamma-epsilon-Fc protein; human CD3gamma-epsilon-Fc construct

[5] = molecular target: human HER2 on cells (human, UniProt P04626 23-1255); assay: cell-based or functional assay

B1: human 767 antibody (antibody, human IgG1, kappa, V domains shown)
VH: QVQLVESGGGLVQPGGSLRLSCAASGFTFSSYWMSWVRQAPGKGLEWVANIKQDGSEKYYVDSVKGRFTISRDNAKNSLYLQMNSLRAEDTAVYYCAREGRTGYFDYWGQGTLVTVSS
VL: QSVLTQPPSASGTPGQRVTISCSGSTSNIGTNYVYWYQQLPGTAPKLLIYRNDQRPSGVPDRFSGSKSGTSASLAISGLRSEDEADYYCAAWDDSRSGVYAFGTGTKVTVLR
notes: Human IgG1; also called clone 767 IgG1 antibody
With B1 the Kd [1] was roughly 1200 nM and the Kd [2] was roughly 300 nM.

B2: BEAT OX40/CD3 antibody (bispecific antibody, human IgG1, kappa, L234A L235A)
heavy: QVTLKESGPALVKPTQTLTLTCSFSGFSLSTSGMGVGWIRQPPGKALEWIAHIWWDDDKYYNTALKTRLTISKDTSKNQVVLTMTNMDPVDTATYYCARIDWDGFAYWGQGTLVTVSSASTKGPSVFPLAPSSKSTSGGTAALGCLVKDYFPEPVTVSWNSGALTSGVHTFPAVLQSSGLYSLSSVVTVPSSSLGTQTYICNVNHKPSNTKVDKKVEPKSCDKTHTCPPCPAPEAAGGPSVFLFPPKPKDTLMISRTPEVTCVVVDVSHEDPEVKFNWYVDGVEVHNAKTKPREEQYNSTYRVVSVLTVLHQDWLNGKEYKCKVSNKALPAPIEKTISKAKGQPREPAVYTLPPSRDELTKNQVKLVCLVTGFYPSDIAVEWESNGQPENNYYTTPPVLDSDGSFSLVSWLNVDKSRWQQGNVFSCSVMHEALHNHYTQKSLSLSPGK
light: EIVLTQSPATLSLSPGERATLSCRASSSVSYMHWYQQKPGQAPRPWIYATSNRATGIPARFSGSGSGTDYTLTISSLEPEDFAVYYCQQWSSNPWTFGQGTKVEIKRTVAAPSVFIFPPSDEQLKSGTASVVCLLNNFYPREAKVQWKVDNALQSGNSQESVTEQDSKDSTYSLSSTLTLSKADYEKHKVYACEVTHQGLSSPVTKSFNRGEC
chain: EVQLVESGGGLVQPGGSLRLSCAASGYTFTRYTMHWVRQAPGKGLEWIGYINPSRGYTYYADSVKGRFTLSTDKSKNTAYLQMSSLRAEDTAVYYCARYYDDHYCLDYWGQGTLVTVSSGGGGSGGGGSGGGGSGGGASDIQLTQSPSSLSASVGDRVTITCRASSSVSYVAWYQQKPGKAPKRWIYDTSKLYSGVPSRFSGSGSGTDYTLTISSLQPEDFATYYCQQWSSNPPTFGQGTKVEIKGGGGTDKTHTCPPCPAPEAAGGPSVFLFPPKPKDTLMISRTPEVTCVVVDVSHEDPEVQFKWYVDGVEVHNAKTKPREEQYNSTFRVVSVLTVLHQDWLNGKEYKCKVSNKALPAPIEKTISKTKGQPREPEVATFPPSREEMTKNQVTLVCLVTGFYPSDIAVEWESSGQPENNYNTDPPLLESDGSFALSSRLRVDKSRWQQGNIFSCSVMHEALHNRFTQKSLSLSPGK
For B2, the “EC50 of T cell redirected killing of stable recombinant CHO[OX40] cells (RDL-MTS)” value [3] was 0.5 nM.

B3: BEAT HER2/CD3-2 antibody (bispecific antibody, human IgG1, kappa, L234A L235A)
heavy: not shown
light: not shown
chain: EVQLVESGGGLVQPGGSLRLSCAASGYTFTRYTMHWVRQAPGKGLEWIGYINPSRGYTYYADSVKGRFTLSTDKSKNTAYLQMSSLRAEDTAVYYCARYYDDHYCLDYWGQGTLVTVSSGGGGSGGGGSGGGGSGGGASDIQLTQSPSSLSASVGDRVTITCRASSSVSYVAWYQQKPGKAPKRWIYDTSKLYSGVPSRFSGSGSGTDYTLTISSLQPEDFATYYCQQWSSNPPTFGQGTKVEIKGGGGTDKTHTCPPCPAPEAAGGPSVFLFPPKPKDTLMISRTPEVTCVVVDVSHEDPEVQFKWYVDGVEVHNAKTKPREEQYNSTFRVVSVLTVLHQDWLNGKEYKCKVSNKALPAPIEKTISKTKGQPREPEVATFPPSREEMTKNQVTLVCLVTGFYPSDIAVEWESSGQPENNYNTDPPLLESDGSFALSSRLRVDKSRWQQGNIFSCSVMHEALHNRFTQKSLSLSPGK
In the case of B3, the binding result [4] is reported as “binds”, the “EC50 of T cell redirected killing of BT-474 cells (RDL-MTS)” value [5] is reported as 0.002 nM and the “EC50 of T cell redirected killing of JIMT-1 cells (RDL-MTS)” value [5] is reported as 0.016 nM. For the same binder, the “EC50 of T cell redirected killing of MDA-MB-231 cells (RDL-MTS)” value [5] was roughly 0.2 nM.

B4: BEAT HER2/CD3-1 antibody (bispecific antibody, human IgG1, kappa, L234A L235A)
heavy: EVQLVESGGGLVQPGGSLRLSCAASGYTFTRYTMHWVRQAPGKGLEWIGYINPSRGYTYYADSVKGRFTLSTDKSKNTAYLQMSSLRAEDTAVYYCARYYDDHYCLDYWGQGTLVTVSSASTKGPSVFPLAPSSKSTSGGTAALGCLVKDYFPEPVTVSWNSGALTSGVHTFPAVLQSSGLYSLSSVVTVPSSSLGTQTYICNVNHKPSNTKVDKKVEPKSCDKTHTCPPCPAPEAAGGPSVFLFPPKPKDTLMISRTPEVTCVVVDVSHEDPEVQFKWYVDGVEVHNAKTKPREEQYNSTFRVVSVLTVLHQDWLNGKEYKCKVSNKALPAPIEKTISKTKGQPREPAVYTLPPSREEMTKNQVKLVCLVTGFYPSDIAVEWESSGQPENNYYTTPPMLDSDGSFSLVSWLNVDKSRWQQGNIFSCSVMHEALHNRFTQKSLSLSPGK
light: DIQLTQSPSSLSASVGDRVTITCRASSSVSYVAWYQQKPGKAPKRWIYDTSKLYSGVPSRFSGSGSGTDYTLTISSLQPEDFATYYCQQWSSNPPTFGQGTKVEIKRTVAAPSVFIFPPSDEQLKSGTASVVCLLNNFYPREAKVQWKVDNALQSGNSQESVTEQDSKDSTYSLSSTLTLSKADYEKHKVYACEVTHQGLSSPVTKSFNRGEC
chain: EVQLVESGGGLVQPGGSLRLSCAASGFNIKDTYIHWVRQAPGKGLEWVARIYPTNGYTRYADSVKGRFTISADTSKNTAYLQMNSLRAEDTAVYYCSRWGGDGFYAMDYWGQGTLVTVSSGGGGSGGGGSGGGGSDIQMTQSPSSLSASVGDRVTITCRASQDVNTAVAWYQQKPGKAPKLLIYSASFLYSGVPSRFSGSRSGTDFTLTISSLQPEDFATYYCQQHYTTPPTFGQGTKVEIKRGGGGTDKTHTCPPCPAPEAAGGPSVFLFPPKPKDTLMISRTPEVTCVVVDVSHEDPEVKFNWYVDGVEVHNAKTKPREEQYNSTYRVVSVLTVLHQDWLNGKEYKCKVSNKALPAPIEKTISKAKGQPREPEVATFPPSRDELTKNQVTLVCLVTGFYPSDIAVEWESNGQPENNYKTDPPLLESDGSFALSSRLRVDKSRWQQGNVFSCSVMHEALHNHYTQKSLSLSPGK
notes: also called HER2/CD3-1 bispecific antibody
B4 was tested, and the binding result [4] was “binds”, the “EC50 of T cell redirected killing of BT-474 cells (RDL-MTS)” value [5] was 0.0006 nM and the “EC50 of T cell redirected killing of JIMT-1 cells (RDL-FACS)” value [5] was 0.0014 nM. For the same binder, the “EC50 of T cell redirected killing of JIMT-1 cells (RDL-MTS)” value [5] was 0.021 nM, the “EC50 of T cell redirected killing of MDA-MB-231 cells (RDL-FACS)” value [5] was 0.08 nM and the “EC50 of T cell redirected killing of MDA-MB-231 cells (RDL-MTS)” value [5] was roughly 0.2 nM.
